Reference: patent US20170129959A1 (OSE IMMUNOTHERAPEUTICS, published 2017)

Assays:
[1] = biological target: T1, Human CD127 (IL-7 receptor alpha chain) expressed on cells (human, UniProt P16871 21-459); assay: cell-based or functional assay
T1 chain: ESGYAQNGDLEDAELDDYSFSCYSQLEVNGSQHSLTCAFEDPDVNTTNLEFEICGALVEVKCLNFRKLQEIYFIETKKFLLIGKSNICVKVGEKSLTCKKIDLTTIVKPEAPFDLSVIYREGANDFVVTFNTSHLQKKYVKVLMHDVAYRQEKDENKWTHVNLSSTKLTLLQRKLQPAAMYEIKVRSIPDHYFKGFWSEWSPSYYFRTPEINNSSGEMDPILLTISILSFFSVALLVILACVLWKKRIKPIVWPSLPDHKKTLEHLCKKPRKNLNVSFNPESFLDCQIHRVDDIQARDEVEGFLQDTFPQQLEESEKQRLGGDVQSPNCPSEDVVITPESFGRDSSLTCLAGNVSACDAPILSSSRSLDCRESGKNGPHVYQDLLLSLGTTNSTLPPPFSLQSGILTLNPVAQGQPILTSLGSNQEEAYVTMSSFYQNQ

[2] = biological target: T2, Recombinant hCD127 (Sino Biologicals, reference 10975-H08H) (human, UniProt P16871 21-239); assay: ELISA on immobilised recombinant hCD127; antibody stored 7 days at 37 °C
T2 construct: Bought protein; also called recombinant hCD127 antigen; rCD127
T2 chain: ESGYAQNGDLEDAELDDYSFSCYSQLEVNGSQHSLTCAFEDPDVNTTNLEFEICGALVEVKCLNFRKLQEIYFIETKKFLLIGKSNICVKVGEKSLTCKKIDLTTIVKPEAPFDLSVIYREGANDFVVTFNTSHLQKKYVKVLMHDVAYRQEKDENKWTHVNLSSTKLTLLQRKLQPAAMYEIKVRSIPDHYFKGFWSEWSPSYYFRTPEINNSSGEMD
Protocol: (§1) FIG. 15. Stability assay of humanized versus Rat anti-CD127 antibodies. Antibody concentrations was measured by ELISA after 7 days at 37° C. (Rat N13B2 wt (+) or humanized N13B2 h3 (square)) and at −80° C. (Rat N13B2 wt (X) or humanized N13B2 h3 (triangle)) and after four frost/defrost events (diamonds).
(§2) Humanized and chimeric purified N13B2-G1 were incubated at 37° C. or at −80° C. for 7 days. Two assays were used to measure stability of antibody: binding anti-CD127 by ELISA assay, and aggregate formation by gel filtration. For activity ELISA assay, recombinant hCD127 (Sino Biologicals, Beijing, China; reference 10975-H08H) was immobilized on plastic at lpg/ml and dilutions of supernatant were added to measure binding. […] For analysis of aggregate formation, sample was analysed on gel filtration chromatography column (Superdex 200, 10/300GL, GeHealthcare) to separate and evaluate aggregate and monomer from samples.

[3] = biological target: T2, Recombinant hCD127 (Sino Biologicals, …); assay: ELISA on immobilised recombinant hCD127; antibody stored 7 days at -80 °C
Protocol: as §1, §2

[4] = biological target: T3, Recombinant CD127 Fc Chimera (10975-H03H, Sino Biological) (human, UniProt P16871 21-239); assay: ELISA, human CD127Fc coated, revealed with anti-human kappa antibody; printed as ED 50
T3 construct: Bought protein; also called hCD127-Ig; human CD127Fc; not shown: constant fragment of an immunoglobulin
T3 chain: T2 chain

[5] = biological target: T2, Recombinant hCD127 (Sino Biologicals, …); assay: ELISA on immobilised recombinant hCD127; antibody after four frost/defrost events
[6] = biological target: T2, Recombinant hCD127 (Sino Biologicals, …); assay: ELISA on coated recombinant hCD127, anti-human kappa detection; antibody stored 7 days at 37 °C; printed as ED 50
Protocol: as §1, §2

[7] = biological target: T2, Recombinant hCD127 (Sino Biologicals, …); assay: ELISA on coated recombinant hCD127, anti-human kappa detection; antibody stored 7 days at -80 °C; printed as ED 50
Protocol: as §1, §2

[8] = biological target: T2, Recombinant hCD127 (Sino Biologicals, …); assay: ELISA on coated recombinant hCD127, anti-human kappa detection; antibody after 4 frost/defrost events; printed as ED 50

IC 50 of inhibition of IL7 induced P-STAT5 on T lymphocytes (0.1 ng/ml rhIL-7) [1]: 21.2 ng/mL
EC50 (read off the curve) [2]: ~1 ng/mL
EC50 (read off the curve) [3]: ~1 ng/mL
EC50 [4]: 0.6 ng/mL
EC50 (read off the curve) [5]: ~2 ng/mL
EC50 [6]: 1.1 ng/mL
EC50 [7]: 1.3 ng/mL
EC50 [8]: 1.7 ng/mL
B1: N13B2-h3 (humanized N13B2) (antibody, IgG4, V domains shown)
VH: QVQLVESGGGLVKPGGSLRLSCAVSGFTLSDYYMAWIRQAPGKGLEWVSTISASGLRTYYPDSVKGRFTISRDNAKNSLYLQMNSLRAEDTAVYYCARPLSAHYGFNYFDYWGQGTLVTVSS
VL: EIVMTQSPATLSVSPGERATLSCRTSEDIYQGLAWYQQKPGQAPRLLIYSANTLHIGIPARFSGSGSGTEFTLTISSLQSEDFAVYYCQQYYDYPLAFGGGTKVEIK
notes: Variable regions only
